In US20030228306A1:

Key:
[1] = target: CC-chemokine receptor CCR5 (UniProt P51681); test: cell-based or functional assay
[2] = target: CC-chemokine receptor CCR5 (UniProt P51681); test: flow cytometry on mitogen-stimulated PBMC, m.f.i.

Chain of UniProt P51681 (P51681 whole entry): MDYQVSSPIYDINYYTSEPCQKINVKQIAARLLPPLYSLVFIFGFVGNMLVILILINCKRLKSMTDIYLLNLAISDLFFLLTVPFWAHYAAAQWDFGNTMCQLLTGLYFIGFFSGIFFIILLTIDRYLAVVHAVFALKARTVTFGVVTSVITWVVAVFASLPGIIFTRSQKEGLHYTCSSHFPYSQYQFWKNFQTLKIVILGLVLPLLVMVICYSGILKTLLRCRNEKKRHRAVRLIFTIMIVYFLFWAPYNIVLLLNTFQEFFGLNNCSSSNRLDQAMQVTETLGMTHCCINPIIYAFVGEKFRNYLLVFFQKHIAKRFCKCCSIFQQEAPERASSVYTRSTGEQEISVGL

Row | Substance | IC50, inhibition of JR-FL entry (luciferase entry assay) [1] | IC50, inhibition of fusion between PM1 cells and HeLa-EnvJR-FL+ cells (RET assay) [1] | K (equal to the IC50 value), inhibition of cell-cell fusion, median effect fit (RET assay) [1] | IC50 for calcium influx inhibition, ratio against 2D7 [1] | fold difference in m.f.i. against PA9 [2]
1 | anti-CCR5 mAb 2D7 (antibody) | 0.026 µg/mL | 1.6 µg/mL | 0.36 µg/mL |  | 
2 | anti-CCR5 monoclonal antibody PA14 | 0.024 µg/mL | 1.7 µg/mL |  | 8 fold | 7 fold
